This passage reports Kd and microscale thermophoresis results from paper PMC5889391, “Lipid binding promotes the open conformation and tumor-suppressive activity of neurofibromin 2” (Nature Communications, 2018).

As usually defined, the Kd is the equilibrium constant for the complex coming apart.

The target in assay [1] is neurofibromin 2 tail tail (Homo sapiens) (UniProt P35240). The settings on record: cited from earlier work.
The target of assay [2] is T1, neurofibromin 2 (full-length, GST-tagged) (Homo sapiens, UniProt P35240, A585W/R588K).
T1 construct: gene NF2; full-length, residues 1-595, N-terminal GST tag kept (pGEX-6P-1), E. coli BL21(DE3) Rosetta2
T1 sequence (P35240 1-595 A585W/R588K): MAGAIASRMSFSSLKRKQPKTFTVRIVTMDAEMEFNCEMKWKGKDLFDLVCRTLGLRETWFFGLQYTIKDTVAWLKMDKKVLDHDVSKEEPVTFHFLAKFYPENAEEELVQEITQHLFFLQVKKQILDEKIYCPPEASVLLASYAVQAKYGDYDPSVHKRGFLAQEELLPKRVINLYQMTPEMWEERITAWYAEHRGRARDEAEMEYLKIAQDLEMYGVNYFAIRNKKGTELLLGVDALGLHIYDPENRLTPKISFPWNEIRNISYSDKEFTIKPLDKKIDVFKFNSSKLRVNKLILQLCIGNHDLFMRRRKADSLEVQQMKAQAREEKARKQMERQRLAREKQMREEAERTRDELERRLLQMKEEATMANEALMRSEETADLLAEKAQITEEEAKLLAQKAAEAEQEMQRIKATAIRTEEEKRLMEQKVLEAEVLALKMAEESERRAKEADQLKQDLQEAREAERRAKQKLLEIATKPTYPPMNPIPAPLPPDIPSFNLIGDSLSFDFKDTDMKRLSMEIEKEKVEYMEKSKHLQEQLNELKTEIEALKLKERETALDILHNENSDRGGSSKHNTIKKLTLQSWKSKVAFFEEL
The assay is described as follows: microscale thermophoresis. Format: binding. The note with it: 20 mM Tris pH 7.5, 300 mM NaCl, 0.01% Tween-20, room temperature; protein labelled with maleimide NT-647. A general note: MST reads how a fluorescent partner responds to local heating, with and without ligand.

The target in assay [3] is T2, N terminally GST-tagged full-length neurofibromin 2, wild type (human, UniProt P35240 1-595, labeled with NT-647 red dye (maleimide conjugated cysteine reactive or NHS conjugated lysine reactive)).
T2 construct: neurofibromin 2 (merlin), human, full length, residues 1-595; also called NF2; merlin; source: E. coli BL21(DE3) Rosetta2, purified (GST column); not shown: GST, N-terminal, kept
T2 sequence (looked up): T1 sequence (P35240 1-595 A585W/R588K) with W585A, K588R
Kind of assay: MST; as a1, but LATS1 69-100 titrated into the neurofibromin 2/PIP2 complex (in the presence of PIP2). The settings on record: both partners purified.

Assay [4] deals with T3, N terminally GST-tagged full-length neurofibromin 2 lipid binding deficient mutant (T59V, W60E, R309Q, R310Q) (human, UniProt P35240 1-595, T59V | W60E | R309Q | R310Q, labeled with NT-647 red dye (maleimide conjugated cysteine reactive or NHS conjugated lysine reactive)).
T3 construct: neurofibromin 2 (merlin), human, full length, residues 1-595, with four point mutations; Cloned into pGEX-6P-1; also called LBD; source: E. coli BL21(DE3) Rosetta2, purified (GST column); not shown: GST, N-terminal, kept
T3 sequence (looked up): T1 sequence (P35240 1-595 A585W/R588K) with T59V, W60E, R309Q, R310Q, W585A, K588R
Kind of assay: MST; unlabeled LATS1 69-100 (2 mM) titrated into 5 uM NT-647-labeled GST-neurofibromin 2; 20 mM Tris pH 7.5, 300 mM NaCl, 0.01% Tween-20; room temperature. The note with it: both partners purified.

In assay [5] the target is T2, N terminally GST-tagged full-length …. The assay is described as above. The settings on record: both partners purified.

Numbering of substitutions follows the chain as printed.

neurofibromin 2 tail tail (Homo sapiens), sequence (P35240 506-595): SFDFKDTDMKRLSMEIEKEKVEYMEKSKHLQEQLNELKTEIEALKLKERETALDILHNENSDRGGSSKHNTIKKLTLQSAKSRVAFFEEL

For “neurofibromin 2 head head (from UniProt P35240)”, the Kd in assay [1] was 3 µM.

As to `CCCCCCCC(=O)OC[C@H](COP(=O)(O)O[C@@H]1[C@H](O)[C@H](O)[C@@H](OP(=O)(O)O)[C@H](OP(=O)(O)O)[C@H]1O)OC(=O)CCCCCCC` [PIP2diC8], in assay [2], the microscale thermophoresis entry is recorded as “No binding was observed for the artificially closed A585W-R588K (AR) mutants to h PIP2”.

B1: LATS1 (residues 69-100) (domain or fragment, UniProt O95835 69-100, looked up)
chain: PKFGTHHKALQEIRNSLLPFANETNSSRSTSE
notes: Hippo pathway kinase LATS1, residues 69-100; it was unlabeled; also called LATS1 kinase; LAST1 residues 69-100
In the case of B1, the Kd is 3.77 ± 0.72 µM in assay [3], 176 ± 34.5 µM in assay [4] and 39.3 ± 4.25 µM in assay [5].
